Measured values from patent US7927849B2, “Laccase enzyme and use thereof” (AB Enzymes OY, priority 2004, dated 2011).
Several values for one entry are separate records, joined by “and”; a condition that tells them apart may be missing. Equal entries are not always repeated.

B1: wt TaLcc1: Wild type laccase purified from Thielavia arenaria ALKO4197 culture supernatant (protein)
chain: MKSWAAAVALMVGILSPHAAAAPPANPVQRDMLQVLEARQSGPTCNTPSNRACWTNGFDINTDYEVSTPNTGRTVAYQLTLTEKENWIGPDGVLKNVVMLVNDKIIGPTIRANWGDNIEVTVINNLKTNGTSMHWHGLRQLGNVFNDGANGVTECPIPPKGGRKTYKFRATQYGTSWYHSHFSAQYGNGVVGTIQIDGPASLPYDIDLGVFPLMDYYYRSADELVHFTQSNGAPPSDNVLFNGTARHPETGAGQWYNVTLTPGKRHRLRIINTSTDNHFQVSLVGHNMTVIATDMVPVNAFTVSSLFLAVGQRYDVTIDANSPVGNYWFNVTFGDGLCGSSNNKFPAAIFRYQGAPATLPTDQGLPVPNHMCLDNLNLTPVVTRSAPVNNFVKRPSNTLGVTLDIGGTPLFVWKVNGSAINVDWGKPILDYVMSGNTSYPVSDNIVQVDAVDQWTYWLIENDPTNPIVSLPHPMHLHGHDFLVLGRSPDELPSAGVRHIFDPAKDLPRLKGNNPVRRDVTMLPAGGWLLLAFKTDNPGAWLFHCHIAWHVSGGLSVDFLERPNDLRTQLNSNAKRADRDDFNRVCREWNAYWPTNPFPKIDSGLRHRFVEESEWMVR
modifications: Thielavia arenaria ALKO4197; (1)..(617) Deduced amino acid sequence of Thielavia arenaria ALKO4197 laccase 1 (Ta Lcc1)
notes: Wild type laccase purified from Thielavia arenaria ALKO4197 culture supernatant

Assays:
[1] = biological target: T1, Thielavia arenaria ALKO4197 laccase TaLcc1, wild type (wt TaLcc1), SEQ ID NO: 12 (Canariomyces arenarius, UniProt F6N9E7); assay: biochemical; conditions: pH 4.5, read-out: Inhibition (%) of laccase
T1 construct: predicted mature residues 22-604

[2] = system: Thielavia wild type laccase (wt TaLcc1); conditions: pH 4.5
[3] = system: recombinant Thielavia arenaria TaLcc1 laccase (rTaLcc1); format: biochemical
Description: The inhibition effect of different compounds on the activity of the recombinant TaLcc1 laccase was determined as described in Example 2.

[4] = Specific activity on guaiacol; format: biochemical; conditions: 25 mM MES buffer, pH 5.5
Description: (§1) Specific activities of the purified Thielavia laccase were determined towards different laccase substrates.

[5] = Isoelectric focusing (pI); format: physicochemical; conditions: pH range 3-9, ABTS staining
Description: Molecular weight of the Thielavia arenaria laccase (wt TaLcc1) was determined on SDS-PAGE according to Laemmli (1970). The gels used in the SDS-PAGE analysis were ready-made 12% Tris HCl gels (BioRad). Protein bands were visualized by staining with Coomassie Brilliant Blue (R 350; Pharmacia) and compared with molecular weight markers (Prestained Protein Marker Broad Range #7708S; New England BioLabs, Beverly, Mass.). The molecular weight of the Thielavia areanaria laccase was approximately 80 kDa. The isoelectric point of the laccase was determined with isoelectric focusing within the pH range of 3-9 (Pharmalyte IEF, Pharmacia) on a LKB 2117 Multiphor II Electrophoresis System (LKB Pharmacia, Bromma, Sweden) according to the manufacturer's instructions.
The purified recombinant Thielavia arenaria TaLcc1 was characterized in terms of pH optimum, thermal stability, and pI as described in Example 2. The molecular weight was determined by MALDI-TOF mass spectrometry on a Ultraflex™ time-of-flight instrument (BrukerDaltonics, Germany) as previously described (Palonen et al., 2003). The redox potential of TaLcc1 was also determined with a combined Pt-AgCl/KCl microelectrode at pH 5.0 according to Sigoillot et al (2004)

[6] = Specific activity on ABTS; format: biochemical; conditions: 25 mM succinate buffer pH 4.5, 25° C.
Description: The activity assay was carried out in accordance with the method developed by Niku-Paavola et al. (1988). The sample was diluted with 0.025 M succinate buffer, pH 4.5. […] The activity is expressed as nano katals.
as §1

[7] = Specific activity on syringaldazine; format: biochemical; conditions: 25 mM MES buffer, pH 5.5
Description: as §1

[8] = Specific activity on DMP; format: biochemical; conditions: 25 mM MES buffer, pH 5.5
Description: as §1

Molecule	inhibition at 10000 µM [1] [%]	Inhibition(%) wt TaLcc1 [2]	Inhibition (%) of laccase rTaLcc1 [3] [%]	Specific activity on guaiacol [4] [nkat/mg]	pI [5]	Specific activity on ABTS [6] [nkat/mg]	Specific activity on syringaldazine [7] [nkat/mg]	Specific activity on DMP [8] [nkat/mg]
O=C(O)CN(CCN(CC(=O)O)CC(=O)O)CC(=O)O [EDTA]	0	0%	5	–	–	–	–	–
[Cl-].[Na+] [NaCl]	–	42% and 35%	–	–	–	–	–	–
B1	–	–	–	63	5.5-6.9	1020	490	260
